B1: WSB1 (parent)
chain: FSHDGLHVASLADDKMVRFWRIDE
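Further: lentivirally expressed fusions sorted by FACS into six bins by GFP to DsRed ratio, PSI derived from sequencing read proportions per bin multiplied by bin number.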

Variants of: B1
Test: protein stability index of a GFP-peptide fusion (GPS, HEK-293T) (PSI 1-6); higher = more stable
Details: c terminus: a fixed tail appended
F19V showed a protein stability index of 2.15.
F19L gave a protein stability index of 3.32.
Work on F19S yielded a protein stability index of 2.42.
Work on F19H yielded a protein stability index of 2.66.
In the case of F19T, the protein stability index is reported as 3.13.
With F19G the protein stability index was 2.38.
Variant F19K has a protein stability index of 2.38.
F19Q showed a protein stability index of 2.03.
F19E showed a protein stability index of 3.92.
F19D gave a protein stability index of 3.37.
With F19N the protein stability index was 2.62.
For F19I, the protein stability index was 1.49.
For F19C, the protein stability index was 2.32.
F19M showed a protein stability index of 3.75.
F19P gave a protein stability index of 2.65.
F19A gave a protein stability index of 2.27.
Variant F19R has a protein stability index of 3.11.
With F19W the protein stability index was 1.57.
For A12C, the protein stability index was 1.95.
In the case of A12L, the protein stability index is reported as 2.04.
Variant A12W has a protein stability index of 1.23.
For A12P, the protein stability index was 1.57.
Work on A12Y yielded a protein stability index of 1.66.
A12K showed a protein stability index of 1.71.
In the case of A12V, the protein stability index is reported as 1.75.
In the case of A12N, the protein stability index is reported as 2.43.
In the case of A12Q, the protein stability index is reported as 2.55.
Variant A12H has a protein stability index of 2.99.
A12D showed a protein stability index of 2.32.
A12I showed a protein stability index of 1.93.
A12T gave a protein stability index of 1.79.
A12G showed a protein stability index of 3.04.
A12S gave a protein stability index of 1.35.
With M16P the protein stability index was 2.05.
With M16V the protein stability index was 2.88.
For M16S, the protein stability index was 2.12.
With M16E the protein stability index was 1.88.
For M16A, the protein stability index was 1.57.
Variant M16R has a protein stability index of 2.76.
In the case of M16T, the protein stability index is reported as 1.16.
Work on M16G yielded a protein stability index of 1.83.
M16C gave a protein stability index of 2.98.
In the case of M16Y, the protein stability index is reported as 1.66.
For M16I, the protein stability index was 1.4.
M16N gave a protein stability index of 1.36.
Variant M16K has a protein stability index of 2.23.
M16W gave a protein stability index of 1.57.
In the case of M16L, the protein stability index is reported as 1.56.
In the case of M16H, the protein stability index is reported as 2.45.
V17S showed a protein stability index of 1.54.
Work on V17K yielded a protein stability index of 1.85.
V17C showed a protein stability index of 3.55.
For V17I, the protein stability index was 2.42.
In the case of V17R, the protein stability index is reported as 2.03.
V17P gave a protein stability index of 2.42.
V17N gave a protein stability index of 1.5.
For V17T, the protein stability index was 1.56.
With V17Q the protein stability index was 2.14.
Work on V17Y yielded a protein stability index of 1.91.
With V17F the protein stability index was 1.58.
Work on V17G yielded a protein stability index of 1.03.
Work on V17A yielded a protein stability index of 1.15.
With V17M the protein stability index was 1.79.
V17L gave a protein stability index of 1.27.
For V17D, the protein stability index was 1.96.
In the case of V17E, the protein stability index is reported as 2.75.
Work on V17H yielded a protein stability index of 1.51.
Variant R18C has a protein stability index of 1.43.
For R18K, the protein stability index was 2.12.
Variant R18S has a protein stability index of 1.31.
For R18P, the protein stability index was 1.83.
R18A gave a protein stability index of 1.41.
With R18I the protein stability index was 2.23.
Variant R18D has a protein stability index of 2.03.
R18Y gave a protein stability index of 1.89.
Work on R18Q yielded a protein stability index of 2.01.
With R18T the protein stability index was 1.08.
Variant R18E has a protein stability index of 1.92.
With R18L the protein stability index was 1.32.
In the case of R18M, the protein stability index is reported as 2.37.
In the case of R18G, the protein stability index is reported as 1.26.
With A9K the protein stability index was 1.67.
A9L showed a protein stability index of 2.62.
Variant A9V has a protein stability index of 2.55.
A9N showed a protein stability index of 2.09.
For A9P, the protein stability index was 1.76.
For A9Q, the protein stability index was 1.89.
For A9S, the protein stability index was 2.17.
A9M showed a protein stability index of 1.79.
Work on A9T yielded a protein stability index of 1.25.
For A9W, the protein stability index was 2.44.
Variant D13K has a protein stability index of 1.88.
Work on D13G yielded a protein stability index of 1.04.
In the case of D13I, the protein stability index is reported as 1.21.
Work on D13W yielded a protein stability index of 2.68.
Variant D13V has a protein stability index of 2.03.
Work on D13H yielded a protein stability index of 3.41.
Variant D13T has a protein stability index of 1.36.
With D13E the protein stability index was 1.31.
Work on D13R yielded a protein stability index of 1.42.
With D13A the protein stability index was 1.02.
Work on D13L yielded a protein stability index of 2.13.
With D13N the protein stability index was 2.09.
D13P showed a protein stability index of 1.56.
With D13C the protein stability index was 1.02.
For D13M, the protein stability index was 1.22.
Variant L11Q has a protein stability index of 1.67.
With L11N the protein stability index was 1.78.
Work on L11R yielded a protein stability index of 1.66.
L11G gave a protein stability index of 1.71.
Variant L11H has a protein stability index of 2.98.
L11M showed a protein stability index of 1.69.
L11A gave a protein stability index of 2.24.
Work on L11F yielded a protein stability index of 2.5.
L11D showed a protein stability index of 2.06.
L11Y gave a protein stability index of 1.3.
Variant L11K has a protein stability index of 2.24.
With L11S the protein stability index was 1.05.
L11V showed a protein stability index of 2.03.
L11P showed a protein stability index of 1.47.
L11I showed a protein stability index of 2.2.
For L11E, the protein stability index was 1.65.
With D14T the protein stability index was 1.83.
With D14I the protein stability index was 3.14.
D14L gave a protein stability index of 1.58.
In the case of D14Q, the protein stability index is reported as 1.78.
For D14P, the protein stability index was 2.05.
In the case of D14F, the protein stability index is reported as 2.93.
D14Y showed a protein stability index of 1.52.
Work on D14M yielded a protein stability index of 1.97.
Variant D14H has a protein stability index of 2.2.
Work on D14W yielded a protein stability index of 2.53.
For D14R, the protein stability index was 1.95.
With D14C the protein stability index was 2.36.
Work on D14N yielded a protein stability index of 2.03.
D14K showed a protein stability index of 1.96.
In the case of D14E, the protein stability index is reported as 1.58.
Variant K15V has a protein stability index of 2.78.
K15G showed a protein stability index of 1.69.
For K15S, the protein stability index was 1.76.
K15N gave a protein stability index of 1.65.
With K15A the protein stability index was 2.18.
K15Y showed a protein stability index of 1.34.
For K15L, the protein stability index was 2.49.
Work on K15Q yielded a protein stability index of 1.04.
K15W showed a protein stability index of 1.67.
With K15R the protein stability index was 2.02.
With K15H the protein stability index was 1.65.
Variant K15E has a protein stability index of 2.68.
With K15I the protein stability index was 1.49.
K15C gave a protein stability index of 1.53.
In the case of K15F, the protein stability index is reported as 1.35.
Variant K15T has a protein stability index of 1.44.
With K15D the protein stability index was 2.33.
Work on S10D yielded a protein stability index of 2.03.
S10L showed a protein stability index of 1.87.
Variant S10I has a protein stability index of 1.69.
For S10N, the protein stability index was 1.75.
For S10E, the protein stability index was 2.02.
In the case of S10F, the protein stability index is reported as 3.47.
S10A showed a protein stability index of 1.74.
Variant S10V has a protein stability index of 1.11.
For S10T, the protein stability index was 1.64.
Variant S10Q has a protein stability index of 1.82.
Variant S10G has a protein stability index of 1.65.
S10P gave a protein stability index of 1.63.
S10K showed a protein stability index of 2.84.

Source: the supplement of paper PMC10567573
